Columns and labels:
[1] = molecular target: recombinant His-tagged mouse PAK3 from Sf9 cells (UniProt Q61036)
[2] = tested on: Raf-1 (331-345) peptide
[3] = molecular target: Raf-CR3[D338E339] (UniProt P04049)
[4] = molecular target: Raf-CR3 (wild type), recombinant Raf-1 catalytic fragment, calmodulin binding protein fusion (UniProt P04049)
[5] = molecular target: myc-tagged wild type Raf-1 (UniProt P04049)
[6] = molecular target: myc-tagged wild type Raf-1 (UniProt P04049); experiment: cell-based or functional assay
[7] = molecular target: Raf-CX (Raf modified to translocate to the plasma membrane independently of Ras) (UniProt P04049); experiment: cell-based or functional assay

Chain of p37, purified 37-kD Raf-1 serine 338/339 protein kinase from rat spleen (truncated PAK3) (chain, as listed by the source): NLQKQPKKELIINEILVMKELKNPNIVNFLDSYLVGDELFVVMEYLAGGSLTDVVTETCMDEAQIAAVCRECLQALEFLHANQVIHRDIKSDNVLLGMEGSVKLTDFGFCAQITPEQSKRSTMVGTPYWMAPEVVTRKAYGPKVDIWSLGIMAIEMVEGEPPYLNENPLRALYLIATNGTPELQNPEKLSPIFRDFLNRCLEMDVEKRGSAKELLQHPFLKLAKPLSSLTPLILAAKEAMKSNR
Chain of recombinant His-tagged mouse PAK3 from Sf9 cells (Q61036 other isoform, or with tags, fused parts or gaps): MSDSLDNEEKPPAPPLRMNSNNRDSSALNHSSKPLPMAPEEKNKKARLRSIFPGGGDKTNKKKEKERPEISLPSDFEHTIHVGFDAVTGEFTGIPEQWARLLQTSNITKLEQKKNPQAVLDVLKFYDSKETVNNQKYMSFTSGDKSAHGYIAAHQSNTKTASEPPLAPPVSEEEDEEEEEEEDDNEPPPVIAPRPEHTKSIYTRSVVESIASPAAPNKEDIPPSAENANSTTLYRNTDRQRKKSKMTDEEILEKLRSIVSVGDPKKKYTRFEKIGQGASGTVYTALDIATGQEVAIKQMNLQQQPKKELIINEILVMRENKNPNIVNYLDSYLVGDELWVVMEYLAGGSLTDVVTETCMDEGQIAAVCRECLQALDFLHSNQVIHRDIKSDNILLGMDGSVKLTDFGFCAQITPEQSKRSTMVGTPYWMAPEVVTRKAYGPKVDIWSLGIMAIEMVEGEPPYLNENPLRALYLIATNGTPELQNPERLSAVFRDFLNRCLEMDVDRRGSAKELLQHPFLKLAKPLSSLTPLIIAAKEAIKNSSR

## GST-Cdc42 charged with GTPγS
[1]
  stimulation of the Raf-1 peptide and Raf-CR3 serine 338/339 kinase activity of PAK3: stimulated up to six-fold by co-incubation with GST-Rac-GTPγS or GST-Cdc42-GTPγS

## p37, purified 37-kD Raf-1 serine 338/339 protein kinase from rat spleen (truncated PAK3)
[2]
  specific activity (Raf-1 peptide phosphorylation): extremely high specific activity (19,500 pmol/min/mg)
[3]
  phosphorylation of Raf-CR3 (32P, SDS-PAGE, autoradiography): failed to significantly phosphorylate the Raf-CR3[D338E339] mutant
[4]
  phosphorylation of Raf-CR3 (32P, SDS-PAGE, autoradiography): The purified kinase phosphorylated the wild type Raf-CR3
  share of incorporated 32P in the serine 338/339 tryptic peptides: Over 95% of the 32P incorporated within the phosphorylated Raf-CR3 was associated with the serine 338/339 tryptic peptides

## constitutively active HA-tagged PAK3[S91,A93,A95]
[5]
  increase in the amount of phosphorylated serine 338 (immunoprecipitation with phosphoserine 338-specific antibody, 9E10 blot): 2.5 and 6.5-fold increases in the amount of phosphorylated serine 338

## dominant negative HA-tagged PAK3[R278] (enzyme)
[6]
  reduction of the Ras[V12]-inducible activation of Raf-1 in COS-7 cells: > 50%
[7]
  reduction of the intrinsic Raf kinase activity in COS-7 cells: > 70%

Source: patent publication US6383734
